The values that follow are results of earlier work, collected in PMC2846234.

This data set concerns the target beta sliding clamp (Escherichia coli) (UniProt P0A988).
Sequence of UniProt P0A988 (P0A988 whole entry): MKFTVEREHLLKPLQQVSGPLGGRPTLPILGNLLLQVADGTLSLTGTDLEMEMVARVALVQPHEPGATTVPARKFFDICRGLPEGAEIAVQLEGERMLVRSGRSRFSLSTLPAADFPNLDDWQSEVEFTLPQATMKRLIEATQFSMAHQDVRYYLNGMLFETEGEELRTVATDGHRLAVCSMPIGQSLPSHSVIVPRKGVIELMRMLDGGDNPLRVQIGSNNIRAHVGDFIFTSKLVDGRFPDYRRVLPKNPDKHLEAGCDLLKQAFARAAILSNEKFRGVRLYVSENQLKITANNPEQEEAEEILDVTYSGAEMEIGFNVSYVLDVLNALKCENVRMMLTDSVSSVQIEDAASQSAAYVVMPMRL

On to DNA polymerase II (from UniProt P21189), for which the Kd was 32 nM.
